Measured values reported in IntAct's records for PubMed 28712572.

Columns and labels:
gbrap_human GABARAP [1] = biological target: gbrap_human GABARAP (UniProt O95166)
gbrap_human GABARAP [2] = biological target: gbrap_human GABARAP (UniProt O95166); remark: listed apart in the source
gbrap_human GABARAP [3] = biological target: gbrap_human GABARAP (UniProt O95166); remark: listed apart in the source

gbrap_human GABARAP, sequence (O95166 whole entry): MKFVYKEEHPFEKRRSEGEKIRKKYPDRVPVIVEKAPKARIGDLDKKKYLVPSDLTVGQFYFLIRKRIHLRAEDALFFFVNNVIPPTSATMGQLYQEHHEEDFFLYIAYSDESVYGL

effect of a mutation on the interaction (gbrap_human GABARAP [3]) | Substance | further results
with no effect | Pericentriolar material 1 protein (Homo sapiens), Q15154 K1957I | 
with no effect | Pericentriolar material 1 protein (Homo sapiens), Q15154 N1953Y | 
with no effect | Pericentriolar material 1 protein (Homo sapiens), Q15154 K1957L | 
disrupting interaction strength | Pericentriolar material 1 protein (Homo sapiens), Q15154 D1962V | 
with no effect | Pericentriolar material 1 protein (Homo sapiens), Q15154 S1955R | 
with no effect | Pericentriolar material 1 protein (Homo sapiens), Q15154 Q1956Y | 
with no effect | Pericentriolar material 1 protein (Homo sapiens), Q15154 S1958V | 
with no effect | Pericentriolar material 1 protein (Homo sapiens), Q15154 I1954Y | 
disrupting interaction strength | Pericentriolar material 1 protein (Homo sapiens), Q15154 V1966H | 
with no effect | Pericentriolar material 1 protein (Homo sapiens), Q15154 E1961C | 
with no effect | Pericentriolar material 1 protein (Homo sapiens), Q15154 E1961L | 
with no effect | Pericentriolar material 1 protein (Homo sapiens), Q15154 D1968I | 
with no effect | Pericentriolar material 1 protein (Homo sapiens), Q15154 N1953D | 
with no effect | Pericentriolar material 1 protein (Homo sapiens), Q15154 E1960A | 
with no effect | Pericentriolar material 1 protein (Homo sapiens), Q15154 L1971E | 
with no effect | Pericentriolar material 1 protein (Homo sapiens), Q15154 E1960L | 
with no effect | Pericentriolar material 1 protein (Homo sapiens), Q15154 K1957N | 
with no effect | Pericentriolar material 1 protein (Homo sapiens), Q15154 E1961S | 
with no effect | Pericentriolar material 1 protein (Homo sapiens), Q15154 S1958H | 
with no effect | Pericentriolar material 1 protein (Homo sapiens), Q15154 E1967M | 
with no effect | Pericentriolar material 1 protein (Homo sapiens), Q15154 I1975A | 
with no effect | Pericentriolar material 1 protein (Homo sapiens), Q15154 S1955C | 
with no effect | Pericentriolar material 1 protein (Homo sapiens), Q15154 K1972D | 
with no effect | Pericentriolar material 1 protein (Homo sapiens), Q15154 D1968R | 
with no effect | Pericentriolar material 1 protein (Homo sapiens), Q15154 E1967C | 
with no effect | Pericentriolar material 1 protein (Homo sapiens), Q15154 E1961Q | 
with no effect | Pericentriolar material 1 protein (Homo sapiens), Q15154 L1973G | 
with no effect | Pericentriolar material 1 protein (Homo sapiens), Q15154 S1955G | 
with no effect | Pericentriolar material 1 protein (Homo sapiens), Q15154 E1967W | 
with no effect | Pericentriolar material 1 protein (Homo sapiens), Q15154 K1972S | 

The next lines start with the substance.

Substance | effect of a mutation on the interaction (gbrap_human GABARAP [3]) | further results
Pericentriolar material 1 protein (Homo sapiens), Q15154 D1962A;F1963A;V1966A |  | effect of a mutation on the interaction (gbrap_human GABARAP [1]): decreasing interaction strength; effect of a mutation on the interaction (gbrap_human GABARAP [2]): with no effect
Pericentriolar material 1 protein (Homo sapiens), Q15154 E1967L | with no effect | 
Pericentriolar material 1 protein (Homo sapiens), Q15154 D1968G | with no effect | 
Pericentriolar material 1 protein (Homo sapiens), Q15154 E1961M | decreasing interaction strength | 
Pericentriolar material 1 protein (Homo sapiens), Q15154 T1974N | with no effect | 
Pericentriolar material 1 protein (Homo sapiens), Q15154 P1970D | decreasing interaction strength | 
Pericentriolar material 1 protein (Homo sapiens), Q15154 L1971F | with no effect | 
Pericentriolar material 1 protein (Homo sapiens), Q15154 S1955Q | with no effect | 
Pericentriolar material 1 protein (Homo sapiens), Q15154 V1964I | with no effect | 
Pericentriolar material 1 protein (Homo sapiens), Q15154 V1964Q | disrupting interaction strength | 
Pericentriolar material 1 protein (Homo sapiens), Q15154 L1973Q | with no effect | 
Pericentriolar material 1 protein (Homo sapiens), Q15154 E1967N | with no effect | 
Pericentriolar material 1 protein (Homo sapiens), Q15154 L1973R | with no effect | 
Pericentriolar material 1 protein (Homo sapiens), Q15154 Q1956G | with no effect | 
Pericentriolar material 1 protein (Homo sapiens), Q15154 I1975D | with no effect | 
Pericentriolar material 1 protein (Homo sapiens), Q15154 N1953G | with no effect | 

Substance | effect of a mutation on the interaction (gbrap_human GABARAP [3]) | further results
Pericentriolar material 1 protein (Homo sapiens), Q15154 F1963H | disrupting interaction strength | 
Pericentriolar material 1 protein (Homo sapiens), Q15154 G1952C | with no effect | 
Pericentriolar material 1 protein (Homo sapiens), Q15154 V1964G | disrupting interaction strength | 
Pericentriolar material 1 protein (Homo sapiens), Q15154 Q1956E | with no effect | 
Pericentriolar material 1 protein (Homo sapiens), Q15154 T1974Q | with no effect | 
Pericentriolar material 1 protein (Homo sapiens), Q15154 I1954Q | with no effect | 
Pericentriolar material 1 protein (Homo sapiens), Q15154 I1975V | with no effect | 
Pericentriolar material 1 protein (Homo sapiens), Q15154 P1970C | with no effect | 
Pericentriolar material 1 protein (Homo sapiens), Q15154 L1971Y | with no effect | 
Pericentriolar material 1 protein (Homo sapiens), Q15154 I1954V | decreasing interaction strength | 
Pericentriolar material 1 protein (Homo sapiens), Q15154 L1971K | with no effect | 
Pericentriolar material 1 protein (Homo sapiens), Q15154 D1962C | with no effect | 
Pericentriolar material 1 protein (Homo sapiens), Q15154 I1954P | with no effect | 
Pericentriolar material 1 protein (Homo sapiens), Q15154 I1954G | with no effect | 
Pericentriolar material 1 protein (Homo sapiens), Q15154 K1965W | with no effect | 
Pericentriolar material 1 protein (Homo sapiens), Q15154 K1965H | with no effect | 
